Biological target: T1, mouse RAG1 (aa 265–1040) (mouse, UniProt P15919 265-1040)
T1 sequence (looked up): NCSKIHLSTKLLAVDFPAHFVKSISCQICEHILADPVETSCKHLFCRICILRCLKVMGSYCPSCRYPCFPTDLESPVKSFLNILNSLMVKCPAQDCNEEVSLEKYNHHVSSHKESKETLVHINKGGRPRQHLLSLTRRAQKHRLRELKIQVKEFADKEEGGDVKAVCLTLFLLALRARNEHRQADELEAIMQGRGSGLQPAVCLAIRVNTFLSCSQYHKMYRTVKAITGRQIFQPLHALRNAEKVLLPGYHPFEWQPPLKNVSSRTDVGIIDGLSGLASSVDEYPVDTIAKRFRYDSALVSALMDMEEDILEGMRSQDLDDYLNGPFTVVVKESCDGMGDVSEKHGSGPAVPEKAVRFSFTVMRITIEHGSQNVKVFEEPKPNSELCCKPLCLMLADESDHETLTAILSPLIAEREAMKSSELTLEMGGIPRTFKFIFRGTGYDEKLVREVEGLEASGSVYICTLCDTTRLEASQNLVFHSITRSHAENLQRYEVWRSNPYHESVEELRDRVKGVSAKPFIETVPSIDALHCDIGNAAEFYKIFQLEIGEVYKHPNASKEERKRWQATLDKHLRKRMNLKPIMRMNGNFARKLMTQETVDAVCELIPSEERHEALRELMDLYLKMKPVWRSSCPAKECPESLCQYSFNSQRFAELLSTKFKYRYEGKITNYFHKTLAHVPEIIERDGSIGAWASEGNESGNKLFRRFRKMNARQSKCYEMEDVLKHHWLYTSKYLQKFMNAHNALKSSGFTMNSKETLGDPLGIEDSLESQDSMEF
Experiment: cell-based or functional assay

RSS DNA hairpinning (pre-nicked RSS substrates) with the long (21 aa) H3K4me3 peptide (1 μM) against no peptide: < 2 fold
transposition of SEC into supercoiled pUC19 (double-ended joint product) with the long (21 aa) H3K4me3 peptide (20 μM) against no peptide: 22 fold
B1: mouse T490A RAG2 (aa 1–520) (natural protein, UniProt P21784 1-520, looked up)
chain: MSLQMVTVGHNIALIQPGFSLMNFDGQVFFFGQKGWPKRSCPTGVFHFDIKQNHLKLKPAIFSKDSCYLPPLRYPATCSYKGSIDSDKHQYIIHGGKTPNNELSDKIYIMSVACKNNKKVTFRCTEKDLVGDVPEPRYGHSIDVVYSRGKSMGVLFGGRSYMPSTQRTTEKWNSVADCLPHVFLIDFEFGCATSYILPELQDGLSFHVSIARNDTVYILGGHSLASNIRPANLYRIRVDLPLGTPAVNCTVLPGGISVSSAILTQTNNDEFVIVGGYQLENQKRMVCSLVSLGDNTIEISEMETPDWTSDIKHSKIWFGSNMGNGTIFLGIPGDNKQAMSEAFYFYTLRCSEEDLSEDQKIVSNSQTSTEDPGDSTPFEDSEEFCFSAEATSFDGDDEFDTYNEDDEDDESVTGYWITCCPTCDVDINTWVPFYSTELNKPAMIYCSHGDGHWVHAQCMDLEERTLIHLSEGSNKYYCNEHVQIARALQAPKRNPPLQKPPMKSLHKKGSGKVLTPAKKS
